± gives the uncertainty stated by the source.
B1: Nucleolar transcription factor 1, residues 408 to 469; numbered along this chain, P17480 (parent)
chain: KRPVSAMFIFSEEKRRQLQEERPELSESELTRLLARMWNDLSEKKKAKYKAREAALKAQSER

Variants of: B1
Experiment: abundance fitness (aPCA) (normalised: wild type 0, dead -1); higher = more abundant; growth selection in yeast, the domain comes from the species named
Conditions: Homo sapiens

**Q.** For KRPVSAMFIFSEEKRRQLQEERPELSESELTRLLARMWNDLSEKKKAKYKAREARLKAQSER [A55R], which abundance fitness is on record?
**A.** -0.058 ± 0.061

**Q.** For KRPVSAMFIFSEEKRRQLQEERPELSESELTRLLARMWNDLSEKKKAKYKAREASLKAQSER [A55S], which abundance fitness is on record?
**A.** -0.065 ± 0.056

**Q.** For KRPVSAMFIFSEEKRRQLQEERPELSESELTRLLARMWNDLSEKKKAKYKAREATLKAQSER [A55T], which abundance fitness is on record?
**A.** -0.062 ± 0.063

**Q.** Which abundance fitness does the source give for KRPVSAMFIFSEEKRRQLQEERPELSESELTRLLARMWNDLSEKKKAKYKAREAVLKAQSER [A55V] here?
**A.** -0.025 ± 0.072

**Q.** For KRPVSAMFIFSEEKRRQLQEERPELSESELTRLLARMWNDLSEKKKAKYKAREAWLKAQSER [A55W], which abundance fitness is on record?
**A.** -0.13 ± 0.064

**Q.** For KRPVSAMFIFSEEKRRQLQEERPELSESELTRLLARMWNDLSEKKKAKYKAREAYLKAQSER [A55Y], which abundance fitness is on record?
**A.** -0.149 ± 0.14

**Q.** With KRPVSAMFIFSEEKRRQLQEERPELSESELTRLLARMWNDLSEKKKAKYKAREAAAKAQSER [L56A] as the variant, how does the abundance fitness read?
**A.** -0.023 ± 0.055

**Q.** With KRPVSAMFIFSEEKRRQLQEERPELSESELTRLLARMWNDLSEKKKAKYKAREAACKAQSER [L56C] as the variant, how does the abundance fitness read?
**A.** -0.164 ± 0.12

**Q.** With KRPVSAMFIFSEEKRRQLQEERPELSESELTRLLARMWNDLSEKKKAKYKAREAADKAQSER [L56D] as the variant, how does the abundance fitness read?
**A.** -0.078 ± 0.074

**Q.** Which abundance fitness does the source give for KRPVSAMFIFSEEKRRQLQEERPELSESELTRLLARMWNDLSEKKKAKYKAREAAEKAQSER [L56E] here?
**A.** -0.045 ± 0.055

**Q.** For KRPVSAMFIFSEEKRRQLQEERPELSESELTRLLARMWNDLSEKKKAKYKAREAAFKAQSER [L56F], which abundance fitness is on record?
**A.** -0.076 ± 0.081

**Q.** Which abundance fitness does the source give for KRPVSAMFIFSEEKRRQLQEERPELSESELTRLLARMWNDLSEKKKAKYKAREAAGKAQSER [L56G] here?
**A.** -0.072 ± 0.042

**Q.** For KRPVSAMFIFSEEKRRQLQEERPELSESELTRLLARMWNDLSEKKKAKYKAREAAHKAQSER [L56H], which abundance fitness is on record?
**A.** -0.05 ± 0.11

**Q.** Which abundance fitness does the source give for KRPVSAMFIFSEEKRRQLQEERPELSESELTRLLARMWNDLSEKKKAKYKAREAAIKAQSER [L56I] here?
**A.** 0.004 ± 0.063

**Q.** Which abundance fitness does the source give for KRPVSAMFIFSEEKRRQLQEERPELSESELTRLLARMWNDLSEKKKAKYKAREAAKKAQSER [L56K] here?
**A.** -0.082 ± 0.051

**Q.** Which abundance fitness does the source give for KRPVSAMFIFSEEKRRQLQEERPELSESELTRLLARMWNDLSEKKKAKYKAREAAMKAQSER [L56M] here?
**A.** -0.145 ± 0.086

**Q.** With KRPVSAMFIFSEEKRRQLQEERPELSESELTRLLARMWNDLSEKKKAKYKAREAANKAQSER [L56N] as the variant, how does the abundance fitness read?
**A.** -0.157 ± 0.13

**Q.** With KRPVSAMFIFSEEKRRQLQEERPELSESELTRLLARMWNDLSEKKKAKYKAREAAPKAQSER [L56P] as the variant, how does the abundance fitness read?
**A.** -0.156 ± 0.066

**Q.** With KRPVSAMFIFSEEKRRQLQEERPELSESELTRLLARMWNDLSEKKKAKYKAREAAQKAQSER [L56Q] as the variant, how does the abundance fitness read?
**A.** -0.089 ± 0.084

**Q.** For KRPVSAMFIFSEEKRRQLQEERPELSESELTRLLARMWNDLSEKKKAKYKAREAARKAQSER [L56R], which abundance fitness is on record?
**A.** -0.111 ± 0.05

**Q.** Which abundance fitness does the source give for KRPVSAMFIFSEEKRRQLQEERPELSESELTRLLARMWNDLSEKKKAKYKAREAASKAQSER [L56S] here?
**A.** 0.013 ± 0.083

**Q.** With KRPVSAMFIFSEEKRRQLQEERPELSESELTRLLARMWNDLSEKKKAKYKAREAATKAQSER [L56T] as the variant, how does the abundance fitness read?
**A.** 0.01 ± 0.089

**Q.** For KRPVSAMFIFSEEKRRQLQEERPELSESELTRLLARMWNDLSEKKKAKYKAREAAVKAQSER [L56V], which abundance fitness is on record?
**A.** -0.036 ± 0.051

**Q.** Which abundance fitness does the source give for KRPVSAMFIFSEEKRRQLQEERPELSESELTRLLARMWNDLSEKKKAKYKAREAAYKAQSER [L56Y] here?
**A.** -0.085 ± 0.065

**Q.** With KRPVSAMFIFSEEKRRQLQEERPELSESELTRLLARMWNDLSEKKKAKYKAREAALAAQSER [K57A] as the variant, how does the abundance fitness read?
**A.** -0.069 ± 0.049

**Q.** With KRPVSAMFIFSEEKRRQLQEERPELSESELTRLLARMWNDLSEKKKAKYKAREAALCAQSER [K57C] as the variant, how does the abundance fitness read?
**A.** -0.048 ± 0.11

**Q.** With KRPVSAMFIFSEEKRRQLQEERPELSESELTRLLARMWNDLSEKKKAKYKAREAALDAQSER [K57D] as the variant, how does the abundance fitness read?
**A.** -0.096 ± 0.058

**Q.** Which abundance fitness does the source give for KRPVSAMFIFSEEKRRQLQEERPELSESELTRLLARMWNDLSEKKKAKYKAREAALEAQSER [K57E] here?
**A.** 0.017 ± 0.074

**Q.** With KRPVSAMFIFSEEKRRQLQEERPELSESELTRLLARMWNDLSEKKKAKYKAREAALFAQSER [K57F] as the variant, how does the abundance fitness read?
**A.** -0.058 ± 0.081

**Q.** With KRPVSAMFIFSEEKRRQLQEERPELSESELTRLLARMWNDLSEKKKAKYKAREAALGAQSER [K57G] as the variant, how does the abundance fitness read?
**A.** -0.073 ± 0.052

**Q.** With KRPVSAMFIFSEEKRRQLQEERPELSESELTRLLARMWNDLSEKKKAKYKAREAALHAQSER [K57H] as the variant, how does the abundance fitness read?
**A.** -0.044 ± 0.098

**Q.** With KRPVSAMFIFSEEKRRQLQEERPELSESELTRLLARMWNDLSEKKKAKYKAREAALIAQSER [K57I] as the variant, how does the abundance fitness read?
**A.** -0.045 ± 0.069

**Q.** With KRPVSAMFIFSEEKRRQLQEERPELSESELTRLLARMWNDLSEKKKAKYKAREAALLAQSER [K57L] as the variant, how does the abundance fitness read?
**A.** -0.07 ± 0.044

**Q.** With KRPVSAMFIFSEEKRRQLQEERPELSESELTRLLARMWNDLSEKKKAKYKAREAALNAQSER [K57N] as the variant, how does the abundance fitness read?
**A.** -0.068 ± 0.11

**Q.** With KRPVSAMFIFSEEKRRQLQEERPELSESELTRLLARMWNDLSEKKKAKYKAREAALPAQSER [K57P] as the variant, how does the abundance fitness read?
**A.** -0.087 ± 0.061

**Q.** With KRPVSAMFIFSEEKRRQLQEERPELSESELTRLLARMWNDLSEKKKAKYKAREAALQAQSER [K57Q] as the variant, how does the abundance fitness read?
**A.** -0.16 ± 0.1

**Q.** With KRPVSAMFIFSEEKRRQLQEERPELSESELTRLLARMWNDLSEKKKAKYKAREAALRAQSER [K57R] as the variant, how does the abundance fitness read?
**A.** -0.079 ± 0.049

**Q.** With KRPVSAMFIFSEEKRRQLQEERPELSESELTRLLARMWNDLSEKKKAKYKAREAALSAQSER [K57S] as the variant, how does the abundance fitness read?
**A.** -0.005 ± 0.05

**Q.** With KRPVSAMFIFSEEKRRQLQEERPELSESELTRLLARMWNDLSEKKKAKYKAREAALTAQSER [K57T] as the variant, how does the abundance fitness read?
**A.** -0.059 ± 0.054

**Q.** Which abundance fitness does the source give for KRPVSAMFIFSEEKRRQLQEERPELSESELTRLLARMWNDLSEKKKAKYKAREAALVAQSER [K57V] here?
**A.** -0.085 ± 0.042

**Q.** With KRPVSAMFIFSEEKRRQLQEERPELSESELTRLLARMWNDLSEKKKAKYKAREAALWAQSER [K57W] as the variant, how does the abundance fitness read?
**A.** -0.146 ± 0.059

**Q.** For KRPVSAMFIFSEEKRRQLQEERPELSESELTRLLARMWNDLSEKKKAKYKAREAALYAQSER [K57Y], which abundance fitness is on record?
**A.** -0.162 ± 0.12

**Q.** For KRPVSAMFIFSEEKRRQLQEERPELSESELTRLLARMWNDLSEKKKAKYKAREAALKCQSER [A58C], which abundance fitness is on record?
**A.** -0.067 ± 0.072
